In the supplement of paper PMC11246515:
± gives the standard deviation of the averaged measurements.

Experiment: total protein half-life in vivo (active degradation + dilution); higher = more stable protein
[1] = E. coli NCM3722 delta-clpP delta-lon delta-hslV, growth: N-lim chemostat, doubling time 6 h
[2] = E. coli NCM3722 delta-clpP, growth: N-lim chemostat, doubling time 6 h
[3] = E. coli NCM3722 delta-hslV, growth: N-lim chemostat, doubling time 6 h
[4] = E. coli NCM3722 delta-lon, growth: N-lim chemostat, doubling time 6 h
[5] = E. coli NCM3722 delta-smpB, growth: N-lim chemostat, doubling time 6 h
[6] = wild type E. coli NCM3722, growth: C-lim chemostat, doubling time 3 h
[7] = wild type E. coli NCM3722, growth: C-lim chemostat, doubling time 6 h
[8] = wild type E. coli NCM3722, growth: C-lim chemostat, doubling time 12 h
[9] = wild type E. coli NCM3722, growth: N-lim chemostat, doubling time 6 h
[10] = wild type E. coli NCM3722, growth: N-lim chemostat, doubling time 12 h
[11] = wild type E. coli NCM3722, growth: P-lim chemostat, doubling time 6 h
[12] = wild type E. coli NCM3722, growth: P-lim chemostat, doubling time 12 h

MEKVMLSFDKVSAHYGKIQALHEVSLHINQGEIVTLIGANGAGKTTLLGTLCGDPRATSGRIVFDDKDITDWQTAKIMREAVAIVPEGRRVFSRMTVEENLAMGGFFAERDQFQERIKWVYELFPRLHERRIQRAGTMSGGEQQMLAIGRALMSNPRLLLLDEPSLGLAPIIIQQIFDTIEQLREQGMTIFLVEQNANQALKLADRGYVLENGHVVLSDTGDALLANEAVRSAYLGG
total protein half-life in vivo [1]: 5.87 ± 0.53 h
total protein half-life in vivo [2]: 6.13 ± 0.64 h
total protein half-life in vivo [3]: 5.66 ± 0.54 h
total protein half-life in vivo [4]: 6.44 ± 0.9 h
total protein half-life in vivo [5]: 5.58 ± 0.61 h
total protein half-life in vivo [6]: 3.07 ± 0.055 h
total protein half-life in vivo [7]: 5.86 ± 0.22 h
total protein half-life in vivo [8]: 12.4 ± 0.52 h
total protein half-life in vivo [9]: 5.51 ± 0.47 h
total protein half-life in vivo [10]: 10.1 ± 1.1 h
total protein half-life in vivo [11]: 5.94 ± 0.59 h
total protein half-life in vivo [12]: 13.5 ± 0.69 h

MFNEVHSIHGHTLLLITKSSLQATALLQHLKQSLAITGKLHNIQRSLDDISSGSIILLDMMEADKKLIHYWQDTLSRKNNNIKILLLNTPEDYPYRDIENWPHINGVFYSMEDQERVVNGLQGVLRGECYFTQKLASYLITHSGNYRYNSTESALLTHREKEILNKLRIGASNNEIARSLFISENTVKTHLYNLFKKIAVKNRTQAVSWANDNLRR
total protein half-life in vivo [2]: 1.72 ± 0.18 h
total protein half-life in vivo [3]: 0.584 h
total protein half-life in vivo [5]: 0.772 h
total protein half-life in vivo [9]: 0.875 h
total protein half-life in vivo [10]: 1.84 h
total protein half-life in vivo [12]: 1.48 ± 0.36 h

MAGLPNSSNALQQWHHLFEAEGTKRSPQAQQHLQQLLRTGLPTRKHENWKYTPLEGLINSQFVSIAGEISPQQRDALALTLDSVRLVFVDGRYVPALSDATEGSGYEVSINDDRQGLPDAIQAEVFLHLTESLAQSVTHIAVKRGQRPAKPLLLMHITQGVAGEEVNTAHYRHHLDLAEGAEATVIEHFVSLNDARHFTGARFTINVAANAHLQHIKLAFENPLSHHFAHNDLLLAEDATAFSHSFLLGGAVLRHNTSTQLNGENSTLRINSLAMPVKNEVCDTRTWLEHNKGFCNSRQLHKTIVSDKGRAVFNGLINVAQHAIKTDGQMTNNNLLMGKLAEVDTKPQLEIYADDVKCSHGATVGRIDDEQIFYLRSRGINQQDAQQMIIYAFAAELTEALRDEGLKQQVLARIGQRLPGGAR
total protein half-life in vivo [1]: 4.76 ± 0.4 h
total protein half-life in vivo [2]: 3.22 ± 0.11 h
total protein half-life in vivo [3]: 2.1 ± 0.063 h
total protein half-life in vivo [4]: 3.45 ± 1.1 h
total protein half-life in vivo [5]: 1.99 ± 0.24 h
total protein half-life in vivo [6]: 2.2 ± 0.22 h
total protein half-life in vivo [7]: 3.91 ± 0.52 h
total protein half-life in vivo [8]: 5.81 ± 0.08 h
total protein half-life in vivo [9]: 2.37 ± 0.38 h
total protein half-life in vivo [10]: 2.817 ± 0.0043 h
total protein half-life in vivo [11]: 3.2 ± 0.23 h
total protein half-life in vivo [12]: 6.04 ± 0.41 h

MNLTLKESLVTRSRVFSPWTAFYFLQSLLINLGLGYPFSLLYTAAFTAILLLLWRTLPRVQKVLVGVSSLVAACYFPFAQAYGAPNFNTLLALHSTNMEESTEILTIFPWYSYLVGLFIFALGVIAIRRKKENEKARWNTFDSLCLVFSVATFFVAPVQNLAWGGVFKLKDTGYPVFRFAKDVIVNNNEVIEEQERMAKLSGMKDTWTVTAVKPKYQTYVVVIGESARRDALGAFGGHWDNTPFASSVNGLIFADYIAASGSTQKSLGLTLNRVVDGKPQFQDNFVTLANRAGFQTWWFSNQGQIGEYDTAIASIAKRADEVYFLKEGNFEADKNTKDEALLDMTAQVLAQEHSQPQLIVLHLMGSHPQACDRTQGKYETFVQSKETSCYLYTMTQTDDLLRKLYDQLRNSGSSFSLVYFSDHGLAFKERGKDVQYLAHDDKYQQNFQVPFMVISSDDKAHRVIKARRSANDFLGFFSQWTGIKAKEINIKYPFISEKKAGPIYITNFQLQKVDYNHLGTDIFDPKP
total protein half-life in vivo [1]: 4.78 ± 0.78 h
total protein half-life in vivo [2]: 4.97 ± 0.21 h
total protein half-life in vivo [3]: 5.49 ± 1.6 h
total protein half-life in vivo [4]: 5.01 h
total protein half-life in vivo [5]: 3.31 ± 0.29 h
total protein half-life in vivo [6]: 2.94 ± 0.12 h
total protein half-life in vivo [8]: 10.2 ± 1.1 h
total protein half-life in vivo [9]: 4.59 ± 0.6 h
total protein half-life in vivo [10]: 10.2 h
total protein half-life in vivo [12]: 8.42 h

MKNDVISPEFDENGRPLRRIRSFVRRQGRLTKGQEHALENYWPVMGVEFSEDMLDFPALFGREAPVTLEIGFGMGASLVAMAKDRPEQDFLGIEVHSPGVGACLASAHEEGLSNLRVMCHDAVEVLHKMIPDNSLRMVQLFFPDPWHKARHNKRRIVQVPFAELVKSKLQLGGVFHMATDWEPYAEHMLEVMSSIDGYKNLSESNDYVPRPASRPVTKFEQRGHRLGHGVWDLMFERVK [P0A8I5]
total protein half-life in vivo [1]: 5.11 ± 0.029 h
total protein half-life in vivo [2]: 4.82 h
total protein half-life in vivo [3]: 7.09 h
total protein half-life in vivo [5]: 4.18 ± 0.61 h
total protein half-life in vivo [6]: 2.73 h
total protein half-life in vivo [7]: 4.88 ± 0.4 h
total protein half-life in vivo [8]: 8.12 ± 0.26 h
total protein half-life in vivo [9]: 4.58 ± 0.17 h
total protein half-life in vivo [10]: 7.49 ± 1.2 h
total protein half-life in vivo [11]: 3.77 h
total protein half-life in vivo [12]: 8.11 ± 0.11 h

MRLSLPRLKMPRLPGFSILVWISTALKGWVMGSREKDTDSLIMYDRTLLWLTFGLAAIGFIMVTSASMPIGQRLTNDPFFFAKRDGVYLILAFILAIITLRLPMEFWQRYSATMLLGSIILLMIVLVVGSSVKGASRWIDLGLLRIQPAELTKLSLFCYIANYLVRKGDEVRNNLRGFLKPMGVILVLAVLLLAQPDLGTVVVLFVTTLAMLFLAGAKLWQFIAIIGMGISAVVLLILAEPYRIRRVTAFWNPWEDPFGSGYQLTQSLMAFGRGELWGQGLGNSVQKLEYLPEAHTDFIFAIIGEELGYVGVVLALLMVFFVAFRAMSIGRKALEIDHRFSGFLACSIGIWFSFQALVNVGAAAGMLPTKGLTLPLISYGGSSLLIMSTAIMMLLRIDYETRLEKAQAFVRGSR [P0ABG4]
total protein half-life in vivo [1]: 4.49 h
total protein half-life in vivo [2]: 2.97 ± 0.5 h
total protein half-life in vivo [3]: 3.01 h
total protein half-life in vivo [4]: 3.64 h
total protein half-life in vivo [5]: 2.76 ± 0.73 h
total protein half-life in vivo [6]: 2.41 ± 0.21 h
total protein half-life in vivo [8]: 3.2 h
total protein half-life in vivo [11]: 2.93 h
total protein half-life in vivo [12]: 5 h
